The values that follow come from paper PMC9482650, “Quantitative fragmentomics allow affinity mapping of interactomes” (Nature Communications, 2022).

As usually defined, the pKd is the negative decadic logarithm of the Kd, by convention in mol/L.

Common to all, as to experiment: holdup assay
What all share (parameters): key: below the threshold = too weak to quantify, mostly under pKd 3.1 to 4

Experiment [1] addresses T1, PARD3B_1, Q8TEW8.
T1 sequence (Q8TEW8 196-299, limits assumed, looked up): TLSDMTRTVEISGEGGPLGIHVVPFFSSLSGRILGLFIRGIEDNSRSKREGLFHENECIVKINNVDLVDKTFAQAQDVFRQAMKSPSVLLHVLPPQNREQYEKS

The target of experiment [2] is T2, ARHGEF11, O15085.
T2 sequence (O15085 42-136, limits assumed, looked up): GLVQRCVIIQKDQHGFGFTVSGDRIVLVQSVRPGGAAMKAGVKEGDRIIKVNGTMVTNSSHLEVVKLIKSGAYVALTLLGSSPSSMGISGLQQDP

For experiment [3], the target named is T3, APBA1_1, Q02410.
T3 sequence (Q02410 651-752, limits assumed, looked up): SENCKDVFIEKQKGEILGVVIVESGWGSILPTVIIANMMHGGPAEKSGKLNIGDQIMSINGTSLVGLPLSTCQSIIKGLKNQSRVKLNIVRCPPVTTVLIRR

The target in experiment [4] is MAGI1_2, Q96QZ7.
Sequence of MAGI1_2, Q96QZ7 (Q96QZ7 456-580): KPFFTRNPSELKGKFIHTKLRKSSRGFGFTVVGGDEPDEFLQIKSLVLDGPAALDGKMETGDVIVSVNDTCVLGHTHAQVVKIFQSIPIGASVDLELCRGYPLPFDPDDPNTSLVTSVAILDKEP
For experiment [5], the target named is DLG5_1, Q8TDM6.
Sequence of DLG5_1, Q8TDM6 (Q8TDM6 617-713): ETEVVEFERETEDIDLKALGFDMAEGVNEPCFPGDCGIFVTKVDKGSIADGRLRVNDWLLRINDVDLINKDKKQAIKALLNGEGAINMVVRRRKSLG
For experiment [6], the target named is T4, MPP6, Q9NZW5.
T4 sequence (Q9NZW5 125-219, limits assumed, looked up): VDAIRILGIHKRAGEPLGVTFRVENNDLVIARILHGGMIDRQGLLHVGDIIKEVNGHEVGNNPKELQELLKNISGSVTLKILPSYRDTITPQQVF

The target in experiment [7] is TJP1_2, Q07157.
Sequence of TJP1_2, Q07157 (Q07157 181-274): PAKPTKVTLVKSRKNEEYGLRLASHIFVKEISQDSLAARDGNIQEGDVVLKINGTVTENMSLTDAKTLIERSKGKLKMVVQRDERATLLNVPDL
Experiment [8] has as its target T5, MPDZ_12, O75970.
T5 sequence (O75970 1857-1958, limits assumed, looked up): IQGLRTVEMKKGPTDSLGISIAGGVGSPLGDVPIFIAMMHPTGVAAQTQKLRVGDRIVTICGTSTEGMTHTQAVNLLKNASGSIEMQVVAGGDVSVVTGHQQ

In experiment [9] the target is T6, DLG3_2, Q92796.
T6 sequence (Q92796 221-321, limits assumed, looked up): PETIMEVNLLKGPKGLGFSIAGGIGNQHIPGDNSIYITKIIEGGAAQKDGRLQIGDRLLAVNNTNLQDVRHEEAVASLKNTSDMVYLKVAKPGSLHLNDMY

The target of experiment [10] is T7, GRIP1_2, Q9Y3R0.
T7 sequence (Q9Y3R0 145-248, limits assumed, looked up): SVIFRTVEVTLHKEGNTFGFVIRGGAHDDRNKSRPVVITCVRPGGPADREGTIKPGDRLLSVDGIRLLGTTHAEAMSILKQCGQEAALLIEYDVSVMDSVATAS

Experiment [11] addresses T8, APBA2_2, Q99767.
T8 sequence (Q99767 654-744, limits assumed, looked up): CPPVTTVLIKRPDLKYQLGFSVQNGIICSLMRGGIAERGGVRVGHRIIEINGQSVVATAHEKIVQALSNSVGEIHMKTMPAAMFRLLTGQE

Experiment [12] concerns the target GRASP, Q7Z6J2.
Experiment [13] has as its target T9, HTRA3, P83110.
T9 sequence (P83110 354-453, limits assumed, looked up): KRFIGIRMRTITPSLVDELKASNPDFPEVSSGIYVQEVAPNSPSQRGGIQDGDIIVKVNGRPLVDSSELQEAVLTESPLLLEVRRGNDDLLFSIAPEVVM

Experiment [14] concerns the target DLG2_3, Q15700.
For experiment [15], the target named is GRIP2_4, Q9C0E4.
Sequence of GRIP2_4, Q9C0E4 (Q9C0E4 446-548): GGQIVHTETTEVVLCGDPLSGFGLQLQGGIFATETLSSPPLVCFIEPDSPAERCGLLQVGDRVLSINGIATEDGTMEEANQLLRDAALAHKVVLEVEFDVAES
In experiment [16] the target is T10, GRIP1_3, Q9Y3R0.
T10 sequence (Q9Y3R0 247-346, limits assumed, looked up): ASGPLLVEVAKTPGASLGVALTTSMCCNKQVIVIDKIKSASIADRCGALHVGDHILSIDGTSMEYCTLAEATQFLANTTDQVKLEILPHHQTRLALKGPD

The target in experiment [17] is SCRIB_2, Q14160.
Sequence of SCRIB_2, Q14160 (Q14160 857-960): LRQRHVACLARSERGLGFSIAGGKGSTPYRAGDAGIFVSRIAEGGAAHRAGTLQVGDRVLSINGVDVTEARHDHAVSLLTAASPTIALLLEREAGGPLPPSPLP
Experiment [18] concerns the target GOPC, Q9HD26.
In experiment [19] the target is GRID2IP_2, A4D2P6.
Sequence of GRID2IP_2, A4D2P6 (A4D2P6 272-370): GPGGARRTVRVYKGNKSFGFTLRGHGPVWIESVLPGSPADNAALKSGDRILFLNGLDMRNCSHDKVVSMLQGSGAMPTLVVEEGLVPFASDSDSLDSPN
Experiment [20] has as its target T11, DLG3_3, Q92796.
T11 sequence (Q92796 374-475, limits assumed, looked up): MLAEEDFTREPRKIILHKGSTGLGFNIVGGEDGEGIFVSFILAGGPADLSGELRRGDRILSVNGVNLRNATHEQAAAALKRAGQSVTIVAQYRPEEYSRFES

Experiment [21] deals with Inadl_1, Q8NI35.
Sequence of Inadl_1, Q8NI35 (Q8NI35 113-229): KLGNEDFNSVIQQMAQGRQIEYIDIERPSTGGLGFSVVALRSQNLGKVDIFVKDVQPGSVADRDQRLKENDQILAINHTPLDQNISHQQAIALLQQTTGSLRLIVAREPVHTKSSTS
For experiment [22], the target named is LAP2, Q96RT1.
Sequence of LAP2, Q96RT1 (Q96RT1 other isoform, or with tags, fused parts or gaps): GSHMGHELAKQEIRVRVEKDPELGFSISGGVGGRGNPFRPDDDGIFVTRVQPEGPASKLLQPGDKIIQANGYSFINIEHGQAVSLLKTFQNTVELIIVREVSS
The target in experiment [23] is Inadl_2, Q8NI35.
Sequence of Inadl_2, Q8NI35 (Q8NI35 238-335): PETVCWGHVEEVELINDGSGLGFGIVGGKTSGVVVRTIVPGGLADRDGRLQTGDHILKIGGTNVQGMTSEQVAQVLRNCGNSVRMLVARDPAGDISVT
The target in experiment [24] is T12, SHANK1, Q9Y566.
T12 sequence (Q9Y566 658-767, limits assumed, looked up): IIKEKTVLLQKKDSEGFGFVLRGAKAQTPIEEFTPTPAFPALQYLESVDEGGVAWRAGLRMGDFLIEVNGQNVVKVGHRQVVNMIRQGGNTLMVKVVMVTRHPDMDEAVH

The mark [25] stands for this setting: modified: phospho on T at position -1 from the C-terminal residue.
Where [26] appears, read: plain residues with an end cap or a label only (N-terminal biotin on a linker: ado-ado).

Sequence of GRASP, Q7Z6J2 (Q7Z6J2 96-193): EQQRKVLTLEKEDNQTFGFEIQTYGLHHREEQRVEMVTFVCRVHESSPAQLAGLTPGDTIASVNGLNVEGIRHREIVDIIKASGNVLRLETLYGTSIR

As to RRVRKLPSTTL [RPS6KA1_-1P, Q15418], the pKd in experiment [1] (setting [25]) was 4.04; in [2] (setting [25]) it was 4.29; in experiment [3] (setting [25]), 3.56; in [4] (setting [25]), 4.32; in [5] (setting [25]), “below the threshold”; in experiment [6] (setting [25]) it was “below the threshold”. Further, the negative-log Kd (pKd) result in experiment [7] (setting [25]) was “below the threshold”; in experiment [8] (setting [25]), “below the threshold”; in [9] (setting [25]) it was 3.89; in experiment [10] (setting [25]) it was “below the threshold”; in experiment [11] (setting [25]), “below the threshold”; in experiment [12] (setting [25]), 3.8. The pKd is 3.34 in [13] (setting [25]); 3.74 in [14] (setting [25]); “below the threshold” in experiment [15] (setting [25]); 3.34 in [16] (setting [25]); 3.61 in [17] (setting [25]); 4.66 in experiment [18] (setting [25]). The pKd was 4.22 in experiment [19] (setting [25]); 3.63 in experiment [20] (setting [25]); 3.35 in experiment [21] (setting [25]); “below the threshold” in [22] (setting [25]); 3.45 in [23] (setting [25]); 4.06 in experiment [24] (setting [25]).

Consider DQPLEKSTKL [AKAP10, O43572], for which the pKd in experiment [1] (setting [26]) was 4.15; in [2] (setting [26]), 4.2; in [3] (setting [26]), “below the threshold”; in [4] (setting [26]), “below the threshold”; in [5] (setting [26]), “below the threshold”; in [6] (setting [26]), “below the threshold”. Besides, the pKd entry in [7] (setting [26]) was “below the threshold”; in experiment [8] (setting [26]), 3.73; in [9] (setting [26]), 4.14; in [10] (setting [26]), “below the threshold”; in experiment [11] (setting [26]), “below the threshold”; in experiment [12] (setting [26]) it was 4.06. For the same molecule, the pKd entry was “below the threshold” in experiment [13] (setting [26]); 3.83 in experiment [14] (setting [26]); “below the threshold” in experiment [15] (setting [26]); “below the threshold” in experiment [16] (setting [26]); “below the threshold” in [17] (setting [26]); 3.86 in experiment [18] (setting [26]). The pKd in experiment [19] (setting [26]) was 4.75; in [20] (setting [26]), “below the threshold”; in experiment [21] (setting [26]), “below the threshold”; in [22] (setting [26]) it was “below the threshold”; in experiment [23] (setting [26]) it was “below the threshold”; in experiment [24] (setting [26]), 5.33.

Regarding LEPAVRSSEL [SH2D3C, Q8N5H7], the pKd result in experiment [1] (setting [26]) is “below the threshold”; in experiment [2] (setting [26]) it was 4.18; in [3] (setting [26]), “below the threshold”; in experiment [4] (setting [26]) it was “below the threshold”; in experiment [5] (setting [26]), “below the threshold”; in experiment [6] (setting [26]), “below the threshold”. For the same molecule, the negative logarithm of the Kd (pKd) result in [7] (setting [26]) is “below the threshold”; in experiment [8] (setting [26]), “below the threshold”; in [9] (setting [26]), “below the threshold”; in [10] (setting [26]) it was “below the threshold”; in [11] (setting [26]), “below the threshold”; in experiment [12] (setting [26]) it was 4.43. Further, the negative-log Kd (pKd) result in experiment [13] (setting [26]), in experiment [14] (setting [26]), in experiment [15] (setting [26]), in experiment [16] (setting [26]), in [17] (setting [26]) and in experiment [18] (setting [26]) was “below the threshold” each time. Also, the pKd was 4.38 in [19] (setting [26]); “below the threshold” in experiment [20] (setting [26]); “below the threshold” in experiment [21] (setting [26]); “below the threshold” in [22] (setting [26]); “below the threshold” in experiment [23] (setting [26]); 3.86 in [24] (setting [26]).

On to GQSVDLVFPV [AKIP1, Q9NQ31], for which the pKd is 3.8 in experiment [1] (setting [26]); 4.09 in experiment [2] (setting [26]); “below the threshold” in [3] (setting [26]); “below the threshold” in experiment [4] (setting [26]); 3.48 in [5] (setting [26]); “below the threshold” in experiment [6] (setting [26]). Also, the pKd result in experiment [7] (setting [26]) was “below the threshold”; in experiment [8] (setting [26]), 3.58; in experiment [9] (setting [26]) it was “below the threshold”; in experiment [10] (setting [26]) it was “below the threshold”; in experiment [11] (setting [26]), “below the threshold”; in experiment [12] (setting [26]) it was 3.48. Further, the pKd result in experiment [13] (setting [26]), in experiment [14] (setting [26]), in [15] (setting [26]), in [16] (setting [26]), in experiment [17] (setting [26]) and in experiment [18] (setting [26]) was “below the threshold” in each case. Moreover, the pKd entry was “below the threshold” in experiment [19] (setting [26]); “below the threshold” in experiment [20] (setting [26]); 3.5 in [21] (setting [26]); “below the threshold” in [22] (setting [26]); 3.51 in [23] (setting [26]); “below the threshold” in [24] (setting [26]).
